According to publication PMC3741172:

Molecular target: Reelin from frontal cortex of non-demented (ND) subjects (human (endogenous in frontal cortex)) (UniProt P78509)
Test: native gel or EMSA; blue native-PAGE of human frontal cortex extracts in 25 mM Bis-Tris pH 7.0, 0.5% DDM, 20% glycerol; samples not boiled; anti-Reelin immunoblot

- stoichiometry N: 2
Substance: Reelin from frontal cortex of non-demented (ND) subjects (from UniProt P78509 26-3460) (natural protein)
